From US20130129763A1 (ARNE FORSGREN, published 2013)

Columns and labels:
[1] = molecular target: T1, Engelbreth-Holm-Swarm mouse sarcoma laminin (Sigma) (mouse, UniProt P19137 25-3083; P02469 22-1786; P02468 34-1607); test: ELISA: 40 nM UspA1 50-770 coated, soluble laminin titrated in three-fold steps 0.03-60 µg/ml, rabbit anti-laminin pAb + HRP anti-rabbit pAb
T1 construct: also called soluble laminin

[2] = molecular target: T2, methylamine-treated C3 (C3met) (human, UniProt P01024 23-667; P01024 672-1663); test: SPR (Biacore 2000), UspA protein amine-coupled on CM5 chip, C3met injected, steady state affinity model; UspA1^50-770 on the chip
T2 construct: mature; also called C3b-like molecule; [125I]-C3met
T2 sequence (P01024 23-667 limits assumed, chain 1 of 2): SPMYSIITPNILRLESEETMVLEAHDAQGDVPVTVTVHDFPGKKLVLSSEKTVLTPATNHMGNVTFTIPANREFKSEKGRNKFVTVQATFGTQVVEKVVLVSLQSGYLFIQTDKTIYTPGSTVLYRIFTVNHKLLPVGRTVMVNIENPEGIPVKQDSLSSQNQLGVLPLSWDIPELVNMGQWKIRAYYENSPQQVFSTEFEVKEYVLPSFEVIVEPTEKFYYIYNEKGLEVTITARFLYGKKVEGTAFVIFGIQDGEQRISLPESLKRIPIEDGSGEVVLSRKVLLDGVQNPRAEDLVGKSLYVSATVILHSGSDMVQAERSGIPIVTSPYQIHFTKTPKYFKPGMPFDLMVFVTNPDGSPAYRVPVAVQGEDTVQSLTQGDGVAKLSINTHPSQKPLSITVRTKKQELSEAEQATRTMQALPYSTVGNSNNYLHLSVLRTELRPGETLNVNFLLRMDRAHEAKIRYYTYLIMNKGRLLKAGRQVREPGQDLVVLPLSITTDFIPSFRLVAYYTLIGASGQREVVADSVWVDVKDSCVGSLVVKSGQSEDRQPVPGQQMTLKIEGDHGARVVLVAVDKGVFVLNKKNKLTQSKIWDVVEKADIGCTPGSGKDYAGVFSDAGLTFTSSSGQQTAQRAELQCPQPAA
T2 sequence (P01024 672-1663 limits assumed, chain 2 of 2): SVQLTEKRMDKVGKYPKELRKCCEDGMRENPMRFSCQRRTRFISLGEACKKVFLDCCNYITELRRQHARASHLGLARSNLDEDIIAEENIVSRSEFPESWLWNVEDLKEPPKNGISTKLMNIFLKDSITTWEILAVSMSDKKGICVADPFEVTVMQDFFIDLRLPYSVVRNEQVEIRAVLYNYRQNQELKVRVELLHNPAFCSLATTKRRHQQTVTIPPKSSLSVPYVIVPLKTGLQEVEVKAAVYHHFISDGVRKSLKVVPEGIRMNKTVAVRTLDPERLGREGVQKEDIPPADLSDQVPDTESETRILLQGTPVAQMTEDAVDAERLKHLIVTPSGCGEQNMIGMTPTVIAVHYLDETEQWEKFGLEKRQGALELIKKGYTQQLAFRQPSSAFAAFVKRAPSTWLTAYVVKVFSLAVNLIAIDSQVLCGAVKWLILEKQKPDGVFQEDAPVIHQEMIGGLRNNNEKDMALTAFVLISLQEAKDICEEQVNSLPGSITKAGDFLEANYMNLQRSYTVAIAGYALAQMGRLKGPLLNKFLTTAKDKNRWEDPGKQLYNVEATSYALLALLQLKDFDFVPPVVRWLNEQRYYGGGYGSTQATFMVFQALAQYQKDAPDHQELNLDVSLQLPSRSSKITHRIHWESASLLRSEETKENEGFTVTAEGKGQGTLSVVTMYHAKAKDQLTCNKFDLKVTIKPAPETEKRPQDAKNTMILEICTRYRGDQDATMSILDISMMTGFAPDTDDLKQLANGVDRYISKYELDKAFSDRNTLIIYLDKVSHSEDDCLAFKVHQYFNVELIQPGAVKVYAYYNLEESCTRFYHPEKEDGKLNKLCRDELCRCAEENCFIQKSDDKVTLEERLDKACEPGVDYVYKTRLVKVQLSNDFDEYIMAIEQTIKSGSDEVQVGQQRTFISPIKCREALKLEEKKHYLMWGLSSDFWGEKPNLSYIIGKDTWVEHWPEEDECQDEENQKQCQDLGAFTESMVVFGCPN

B1: recombinant UspA1^50-770 (M. catarrhalis Bc5) (other)
chain: KVGKATNKISGGDNNTANGTYLTIGGGDYNKTKGRYSTIGGGLFNEATNEYSTIGSGGYNKAKGRYSTIGGGGYNEATNQYSTIGGGDNNTAKGRYSTIGGGGYNEATIENSTVGGGGYNQAKGRNSTVAGGYNNEATGTDSTIAGGRKNQATGKGSFAAGIDNKANADNAVALGNKNTIEGENSVAIGSNNTVKKGQQNVFILGSNTDTTNAQNGSVLLGHNTAGKAATIVNSAEVGGLSLTGFAGASKTGNGTVSVGKKGKERQIVHVGAGEISDTSTDAVNGSQLHVLATVVAQNKADIKDLDDEVGLLGEEINSLEGEIFNNQDAIAKNQADIKTLESNVEEGLLDLSGRLLDQKADIDNNINNIYELAQQQDQHSSDIKTLKNNVEEGLLDLSGRLIDQKADLTKDIKALESNVEEGLLDLSGRLIDQKADIAKNQADIAQNQTDIQDLAAYNELQDAYAKQQTEAIDALNKASSANTDRIATAELGIAENKKDAQIAKAQANENKDGIAKNQADIQLHDKKITNLGILHSMVARAVGNNTQGVATNKADIAKNQADIANNIKNIYELAQQQDQHSSDIKTLAKVSAANTDRIAKNKAEADASFETLTKNQNTLIEQGEALVEQNKAINQELEGFAAHADVQDKQILQNQADITTNKTAIEQNINRTVANGFEIEKNKAGIATNKQELILQNDRLNRINETNNHQDQKIDQLGYAL
notes: also called UspA1^56-770 [sic]; UspA1^50-7"
With B1 the binding result [1] was “binds” and the Kd [2] was 14 µM.
